Assay results from patent US20230094083A1 (YEDA RESEARCH AND DEVELOPMENT, published 2023).
Numbering of substitutions follows the chain as printed. Numbers in names are those of the source.

Columns and labels:
[1] = target: human Grp94 on the cell surface (senescent IMR-90 human lung fibroblasts; IPF patient lung fibroblasts) (human) (UniProt P14625); test: cell-based or functional assay
[2] = target: T1, human Grp94 on the cell surface (senescent IMR-90 human lung fibroblasts; IPF patient lung fibroblasts) (human, UniProt P14625 22-803); test: flow cytometry on senescent human IMR-90 cells
T1 construct: whole, on cells; also called cell surface Grp94; Grp94 on the cell surface of senescent IMR-90 cells
T1 sequence (P14625 22-803): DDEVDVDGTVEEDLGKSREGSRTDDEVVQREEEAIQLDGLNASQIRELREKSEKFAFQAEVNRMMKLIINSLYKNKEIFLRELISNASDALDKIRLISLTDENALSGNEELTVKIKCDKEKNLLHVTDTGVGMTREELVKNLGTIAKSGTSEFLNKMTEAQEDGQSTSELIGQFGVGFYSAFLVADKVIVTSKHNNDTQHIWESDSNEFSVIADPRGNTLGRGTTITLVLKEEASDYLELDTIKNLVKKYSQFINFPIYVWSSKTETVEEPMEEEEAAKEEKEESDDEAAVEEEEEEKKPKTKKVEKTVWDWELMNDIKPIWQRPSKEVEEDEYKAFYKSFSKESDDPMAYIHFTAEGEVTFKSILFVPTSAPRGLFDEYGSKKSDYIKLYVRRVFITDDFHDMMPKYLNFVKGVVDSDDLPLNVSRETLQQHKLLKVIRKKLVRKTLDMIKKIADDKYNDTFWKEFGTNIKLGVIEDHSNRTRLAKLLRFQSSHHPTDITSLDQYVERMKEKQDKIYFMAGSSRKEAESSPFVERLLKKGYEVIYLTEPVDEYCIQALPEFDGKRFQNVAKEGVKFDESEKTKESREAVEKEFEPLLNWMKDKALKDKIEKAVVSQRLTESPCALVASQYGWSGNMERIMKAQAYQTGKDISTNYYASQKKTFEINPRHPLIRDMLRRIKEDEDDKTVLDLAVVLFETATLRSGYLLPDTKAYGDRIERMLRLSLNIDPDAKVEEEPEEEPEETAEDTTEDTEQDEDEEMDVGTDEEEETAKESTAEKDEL

[3] = target: T1, human Grp94 on the cell surface …; test: immunofluorescence on senescent human IMR-90 cells
[4] = target: T2, mouse Grp94 on the cell surface (Meth A sarcoma cells; senescent primary mouse lung fibroblasts) (mouse, UniProt P08113 22-802); test: ranking of clones by flow cytometry on Meth A sarcoma cells
T2 construct: whole, on cells; also called Grp94 expressed on the surface of Meth A cells
T2 sequence (P08113 22-802): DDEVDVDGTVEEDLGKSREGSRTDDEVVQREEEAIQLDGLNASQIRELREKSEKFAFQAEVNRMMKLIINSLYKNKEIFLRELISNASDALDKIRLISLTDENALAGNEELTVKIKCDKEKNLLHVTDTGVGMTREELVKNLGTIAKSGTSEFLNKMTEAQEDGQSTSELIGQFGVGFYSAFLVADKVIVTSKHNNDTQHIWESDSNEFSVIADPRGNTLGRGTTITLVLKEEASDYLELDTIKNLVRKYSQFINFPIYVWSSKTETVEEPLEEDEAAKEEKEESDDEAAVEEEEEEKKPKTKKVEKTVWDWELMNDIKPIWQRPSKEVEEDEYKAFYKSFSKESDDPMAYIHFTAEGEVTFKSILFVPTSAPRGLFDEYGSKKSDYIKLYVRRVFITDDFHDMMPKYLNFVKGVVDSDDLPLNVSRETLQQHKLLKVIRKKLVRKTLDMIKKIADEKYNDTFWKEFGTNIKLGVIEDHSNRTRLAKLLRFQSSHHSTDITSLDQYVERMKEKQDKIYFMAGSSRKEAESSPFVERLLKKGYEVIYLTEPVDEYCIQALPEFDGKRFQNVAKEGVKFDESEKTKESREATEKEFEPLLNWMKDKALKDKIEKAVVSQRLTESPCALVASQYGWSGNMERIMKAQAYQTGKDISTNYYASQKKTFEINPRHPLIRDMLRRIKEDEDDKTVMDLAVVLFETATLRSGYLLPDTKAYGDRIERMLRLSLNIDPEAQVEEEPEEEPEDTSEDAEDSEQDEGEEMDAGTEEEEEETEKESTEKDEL

[5] = target: T3, recombinant human Grp94 (Creative Biomart, USA) (human, UniProt P14625 22-803, limits assumed); test: Biacore single cycle kinetics, antibody captured, Grp94 as analyte
T3 construct: Bought recombinant protein; It served as immunogen, ELISA coat, Biacore analyte and the immobilised ligand in binning; also called rHGrp94; rhGrp94
T3 sequence (P14625 22-803 limits assumed): as the sequence (P14625 22-803) above
Description: Biacore single cycle analysis was performed on supernatants where the monoclonal antibody was captured with Fc on the surface as the ligand and Grp94 flowed over as the analyte. Kinetic experiments were performed on a Biacore T200 running Biacore T200 Control software V2.0.1 and Evaluation software V3.0 (GE Healthcare, Sweden). All single cycle kinetic experiments were run at 25° C. with HBS-P+ running buffer (pH 7.4) (GE Healthcare, UK) containing 1 mg/ml BSA.
Antibodies were diluted in running buffer and at the start of each cycle were loaded onto Fc2, Fc3, and Fc4 of the CM5 chip coupled with an anti-mouse capture antibody using standard amine chemistry (GE Healthcare, UK). IgGs were captured at a flow rate of 10 microliter/minute to give an immobilization level (RL) of approximately 160RU. The surface was then allowed to stabilize. Single cycle kinetic data was obtained with Grp94 (Creative BioMart, USA) as the analyte at a flow rate of 30 microliter/min to minimize any potential mass transport limitations. […] The association phase for the three injections of increasing concentrations of Grp94 was monitored for 150 seconds each time and a single dissociation phase was measured for 900 seconds following the last injection of Grp94. […]

[6] = target: T2, mouse Grp94 on the cell surface (Meth A …); test: flow cytometry, neat hybridoma supernatant on Meth A sarcoma cells
Description: (§1) Mouse Meth A sarcoma cells (Cat. 400284 CLS, Germany) were cultured using standard tissue culture conditions in RPMI-1640. Cells were seeded at 1×10⁵ in 100 microliter FACS buffer in 96 well U bottom FACS plates, pelleted and resuspended in 100 microliters neat or 1 in 2 diluted supernatant sample for 30 minutes at 4° C. Cells were washed twice with PBS and resuspended in 100 microliter secondary antibody, AF647 conjugated goat anti-mouse IgG A21236 (Thermo Fisher Scientific) at 2 micrograms/ml in FACS buffer for 30 minutes at 4° C. Cells were washed twice with PBS and resuspended in 100 microliters water containing 10% CellFix (Becton Dickinson, UK). Median fluorescence intensity was measured using an Attune NxT Acoustic Focusing Cytometer (Thermo Fisher Scientific) with autosampler using acquisition parameters optimized with unstained cells and secondary labeled cells: FSC:100, SSC:340, FL1:370. The acquisition rate was 100 microliter/minute stopping at 10,000 R1 events. Positive controls consisted of commercially sourced mouse anti-Grp94 antibodies MA1-10892 (Thermo Fisher Scientific) and MAB7606 (R&D System) at 2 micrograms/ml while negative control consisted of Meth A cells incubated with secondary antibody alone.

[7] = target: T1, human Grp94 on the cell surface …; test: flow cytometry, senescent against proliferating human IMR-90 cells
[8] = target: T2, mouse Grp94 on the cell surface (Meth A …); test: flow cytometry, hybridoma supernatant diluted 1:2 on Meth A sarcoma cells
Description: as §1

[9] = target: T2, mouse Grp94 on the cell surface (Meth A …); test: flow cytometry, senescent against proliferating primary mouse lung fibroblasts
[10] = target: T2, mouse Grp94 on the cell surface (Meth A …); test: flow cytometry on senescent primary mouse lung fibroblasts

Sequence of human Grp94 on the cell surface (senescent IMR-90 human lung fibroblasts; IPF patient lung fibroblasts) (human) (P14625 22-803): as above

B1: optimized anti-Grp94 4C2 antibody (mouse IgG2a, Fc substitutions S239D and I332E, afucosylated) (antibody, part only; not given: mutant mouse IgG2a and light constant, V domains shown, not shown: another chain or arm of the molecule; a dimerising Fc or GST)
VH: EVQLVETGGGLVQPKGSLKLSCAASGFTFNTNAMNWVRQAPGKGLEWVARIRSKSNNYATYYADSVKDRFTISRDDSQSMLFLQMNNLKTEDTAMYYCVRDTLAWFAYWGQGTLVTVSA
VL: QIVLTQSPAIMSASPGEKVTITCSASSSVSYMHWFQQKPDTSPKLWIYSTSNLASGVPARFSASGSGTSYSLTISRMEAEDAATYYCQQKTSYPPTFGAGTKLELK
modifications: The Fc substitutions S239D and I332E (paragraph 258 prints the second as 1332E; paragraph 22 has I332E) and the afucosylated Fc glycan lie in the constant region. The letters given do not carry them.
B1 gave an ADCC reporter-gene assay (Promega, mouse FcgRIV effector cells), activation of the reporter; target cells senescent IMR-90 [1] of 20 fold and a mFcγRIV ADCC Reporter Bioassay (Promega), activation of the reporter gene; target cells senescent IMR-90 [1] of 20 fold.

B2: anti-Grp94 monoclonal antibody clone 4C2 (antibody, V domains shown)
VH: B1 VH
VL: B1 VL
notes: Mouse hybridoma antibody; It was tested as hybridoma supernatant in the screens (ELISA, Meth A FACS, Biacore, binning); also called 4C2 clone hybridoma supernatant; monoclonal antibody 4C2
In the case of B2, the “Human FACS plot (score 1-9, 1 = best)” value [2] is reported as 4 score, the “Human IF (score 1-9, 1 = best)” value [3] is reported as 1 score and the “Top 24 by Meth A (rank score, 1 = best binder)” value [4] is reported as 1 rank. The Kd [5] was 3.47 nM, the “Meth A Binding (mean fluorescence intensity)” value (shortened to “Meth A Binding”) [6] was 2690 RFU (mean fluorescence intensity) and the “Human FACS ratio (senescent cells / proliferating cells)” value [7] was 1 ratio. The “Meth A Dilution 1:2 (mean fluorescence intensity)” value [8] was 1990 RFU (mean fluorescence intensity) and the “Mouse FACS ratio (senescent cells / proliferating cells)” value [9] was 5 ratio.

B3: anti-Grp94 monoclonal antibody clone 5B2 (antibody, mouse IgG2a, V domains shown)
VH: B1 VH with S79N, L81F, F82Y, L103A, A104T
VL: B1 VL with I10L, T22A, D40G, A63G, A99S, L105I
notes: Mouse hybridoma antibody, tested as hybridoma supernatant
For B3, the “Human FACS plot (score 1-9, 1 = best)” value [2] was 3 score, the “Human IF (score 1-9, 1 = best)” value [3] was 3 score and the “Top 24 by Meth A (rank score, 1 = best binder)” value [4] was 12 rank. The Kd [5] was 2.5 nM, the “Meth A Binding” value [6] was 819 RFU (mean fluorescence intensity) and the “Human FACS ratio (senescent cells / proliferating cells)” value [7] was 3 ratio. The “Meth A Dilution 1:2 (mean fluorescence intensity)” value [8] was 746 RFU (mean fluorescence intensity) and the “Mouse FACS ratio (senescent cells / proliferating cells)” value [9] was 6 ratio.

B4: anti-Grp94 monoclonal antibody clone 9A3 (antibody, mouse IgG2a, V domains shown)
VH: EVKLVESGGGLVKPGGSLKLSCAASGFTFRTYAMSWVRQTPEKRLEWVATITTGGPTYYPDNVKGRFTISRDNDRNILDLQMNSLRSEDTATYYCLRGATTGDYWGQGTTLIVSS
VL: DIVMTQSHKFMFTSVGDRVSITCKASHDVSTAVAWYQQKPGQYPKLLIYWASNRYTGVPDRFTGSGSGMDFTFTISSVQAEDLAVYYCQQHSSTPYTFGGGTRLEIK
notes: as for B3
B4 was tested, and the “Human FACS plot (score 1-9, 1 = best)” value [2] was 1 score, the “Human IF (score 1-9, 1 = best)” value [3] was 4 score and the “Mouse FACS (score 1-9, 1 = best)” value [10] was 4 score. The “Top 24 by Meth A (rank score, 1 = best binder)” value [4] was 18 rank, the “Meth A Binding” value [6] was 732 RFU (mean fluorescence intensity) and the “Human FACS ratio (senescent cells / proliferating cells)” value [7] was 6 ratio. The “Meth A Dilution 1:2 (mean fluorescence intensity)” value [8] was 688 RFU (mean fluorescence intensity) and the “Mouse FACS ratio (senescent cells / proliferating cells)” value [9] was 7 ratio.
